Residues, ends and D or L forms follow the SMILES beside them. No end group written: not given here. *: point of attachment. Propyl(3-UDP) = O=c1ccn([C@@H]2O[C@H](COP(=O)(O)OP(=O)(O)OCCC*)[C@@H](O)[C@H]2O)c(=O)[nH]1; Floc = 5(6)-fluorescein carboxamide; Ahx = NCCCCCC(=O)O
T1: hOGT (Homo sapiens, UniProt O15294)
T1 sequence (O15294 312-1031 isoform O15294-3): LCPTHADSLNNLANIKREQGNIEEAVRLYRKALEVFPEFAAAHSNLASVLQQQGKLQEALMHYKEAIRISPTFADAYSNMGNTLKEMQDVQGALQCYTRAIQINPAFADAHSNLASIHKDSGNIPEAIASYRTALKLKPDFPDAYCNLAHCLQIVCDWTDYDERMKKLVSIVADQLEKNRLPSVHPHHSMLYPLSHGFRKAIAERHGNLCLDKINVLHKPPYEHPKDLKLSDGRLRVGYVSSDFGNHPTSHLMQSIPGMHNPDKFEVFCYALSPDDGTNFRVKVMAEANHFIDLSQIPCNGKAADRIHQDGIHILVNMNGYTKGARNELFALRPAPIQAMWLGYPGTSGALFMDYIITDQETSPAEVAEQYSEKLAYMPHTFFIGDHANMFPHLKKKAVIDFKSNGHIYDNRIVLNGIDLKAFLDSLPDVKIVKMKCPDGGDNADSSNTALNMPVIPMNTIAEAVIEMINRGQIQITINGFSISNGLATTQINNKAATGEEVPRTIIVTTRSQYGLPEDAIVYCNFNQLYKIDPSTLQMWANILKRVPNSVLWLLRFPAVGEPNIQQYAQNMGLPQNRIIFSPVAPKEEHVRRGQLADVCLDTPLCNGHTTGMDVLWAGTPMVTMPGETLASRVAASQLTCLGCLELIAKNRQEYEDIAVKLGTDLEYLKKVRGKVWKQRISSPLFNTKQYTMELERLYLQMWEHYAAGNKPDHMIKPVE

T2: human O-GlcNAc transferase (human, UniProt O15294 1-1046)
T2 sequence (looked up): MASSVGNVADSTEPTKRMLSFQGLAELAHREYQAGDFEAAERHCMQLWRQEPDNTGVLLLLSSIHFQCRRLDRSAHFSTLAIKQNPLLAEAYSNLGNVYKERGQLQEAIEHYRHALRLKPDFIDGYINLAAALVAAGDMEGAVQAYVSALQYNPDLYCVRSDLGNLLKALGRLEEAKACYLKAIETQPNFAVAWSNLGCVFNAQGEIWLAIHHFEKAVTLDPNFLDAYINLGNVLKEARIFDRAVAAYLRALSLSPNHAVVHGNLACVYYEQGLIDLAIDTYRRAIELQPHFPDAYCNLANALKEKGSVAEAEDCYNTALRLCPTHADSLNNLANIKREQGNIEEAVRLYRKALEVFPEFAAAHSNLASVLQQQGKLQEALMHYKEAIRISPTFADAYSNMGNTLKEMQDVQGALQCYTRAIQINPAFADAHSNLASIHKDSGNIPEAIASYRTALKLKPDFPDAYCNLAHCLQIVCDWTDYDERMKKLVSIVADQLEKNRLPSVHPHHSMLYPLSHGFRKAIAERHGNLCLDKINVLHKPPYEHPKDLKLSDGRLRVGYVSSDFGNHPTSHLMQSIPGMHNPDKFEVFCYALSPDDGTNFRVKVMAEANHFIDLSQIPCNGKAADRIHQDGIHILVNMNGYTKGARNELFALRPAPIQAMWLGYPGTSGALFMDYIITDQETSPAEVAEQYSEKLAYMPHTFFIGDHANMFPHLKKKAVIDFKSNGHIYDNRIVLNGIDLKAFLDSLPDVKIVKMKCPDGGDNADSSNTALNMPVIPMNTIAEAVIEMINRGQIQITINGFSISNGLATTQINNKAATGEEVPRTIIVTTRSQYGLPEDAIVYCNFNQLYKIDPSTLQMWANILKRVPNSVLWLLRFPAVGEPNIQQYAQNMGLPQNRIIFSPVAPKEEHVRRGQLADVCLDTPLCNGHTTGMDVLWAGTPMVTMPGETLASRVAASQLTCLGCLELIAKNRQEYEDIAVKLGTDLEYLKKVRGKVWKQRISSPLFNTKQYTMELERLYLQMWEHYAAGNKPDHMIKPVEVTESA


Assays:
hOGT [1] = biological target: T1, hOGT; experiment: fluorescence polarimetry assay, displacement of probe 17 from hOGT; assay type: binding; conditions: displacement of 0.75 µM 17 from 0.8 µM hOGT
Protocol: The derived values of Ki = 7 ± 2 μM (1) and Ki = 5 ± 2 μM (UDP-5S-GlcNAc) were in agreement with the previously reported affinities,[20],[25] validating this assay.
Next, we used this assay platform to examine the effect of the peptide sequence on the inhibitory potency of the S-linked UDP–peptide conjugates. We compiled a set of peptides derived from the known hOGT substrate proteins RB2, TAB1, CK2, and KER, as well as a previously published hOGT sequon[38] (Table 1). The topology of the heptapeptides in the 7-S5C subseries (19–23) was chosen to replicate that of the peptide 5. The nonapeptides 9-S5C (24–26) were designed with a centrally located Cys. […] The TEC reaction of allyl-UDP 4 with all substrates worked routinely well to give an array of the novel S-linked UDP–peptide conjugates 29–38 (Table 1, Table S1) that were evaluated by the modified FP assay (Table 1, Figure 5).
Fluorescence polarimetry measurements […]
probe (125 nM) in 0.1 M Tris-HCl pH 7.5, 0.15 M NaCl, 0.5 mM TCEP and 5% DMSO in a total volume of 25 µL and incubated in the dark for 30 min before read-out.
Binding affinities for ligands were determined by 17 displacement. […] Fluorescence polarisation was measured on a PHERAStar plate reader (BMG LABTECH). Data analysis was performed in GraphPad Prism 7 and binding constants for the labelled 17 and 18 were determined by fitting a one-site – Total binding curve. […]

hOGT [2] = biological target: T1, hOGT; experiment: fluorometric hOGT activity assay (UDP formation)
SH-SY5Y cells = experiment: total O-GlcNAcylation in cell culture, Western blot (SH-SY5Y); assay type: cell-based; conditions: 24 h, concentrations up to 1 mM
[3] = biological target: human O-GlcNAc transferase (human) (UniProt O15294)
OGT = biological target: OGT; design: method as in PMID 23103942; conditions: read-out: Kd of donor substrate; cited from earlier work
[4] = biological target: T2, human O-GlcNAc transferase; experiment: fluorescence polarisation; competition: displacement of the fluorescent probe 17 from hOGT by unlabeled conjugates, Ki derived; conditions: both partners purified
[5] = biological target: T2, human O-GlcNAc transferase; experiment: fluorescence polarisation; direct binding of the fluorescein-labeled conjugates 17 and 18 to hOGT; conditions: both partners purified
[6] = biological target: T2, human O-GlcNAc transferase; experiment: cell-based or functional assay
[7] = biological target: T2, human O-GlcNAc transferase; experiment: fluorescence polarisation; competition: displacement of the fluorescent probe 17 from hOGT by unlabeled conjugates, Ki derived; conditions: both partners purified; remark: listed apart in the source

| Molecule | Ki [4] [µM] | also measured |
| --- | --- | --- |
| CC(=O)N[C@@H]1[C@@H](O)[C@H](O)[C@@H](CO)S[C@@H]1OP(=O)(O)OP(=O)(O)OC[C@H]1O[C@@H](n2ccc(=O)[nH]c2=O)[C@H](O)[C@@H]1O [UDP-5S-GlcNAc, reference compound] | – | Ki (hOGT [1]): 5 ± 2 µM |
| CC(=O)N[C@@H](Cc1ccc(O)cc1)C(=O)NCC(=O)N[C@@H](CCCNC(=N)N)C(=O)N[C@@H](CCCCN)C(=O)N[C@@H](CCCCN)C(=O)N[C@@H](CCCNC(=N)N)C(=O)N[C@@H](CCCNC(=N)N)C(=O)N[C@@H](CCC(N)=O)C(=O)N[C@@H](CCCNC(=N)N)C(=O)N[C@@H](CCCNC(=N)N)C(=O)N[C@@H](CCCNC(=N)N)C(=O)NCCOCCOCC(=O)N[C@H](C(=O)N[C@H](C(=O)N1CCC[C@H]1C(=O)N[C@H](C(=O)N[C@@H](CSCCCOP(=O)(O)OP(=O)(O)OC[C@H]1O[C@@H](n2ccc(=O)[nH]c2=O)[C@H](O)[C@@H]1O)C(=O)N[C@H](C(=O)N[C@@H](C)C(N)=O)[C@@H](C)O)C(C)C)[C@@H](C)O)C(C)C [compound 13] | – | IC50 (hOGT [2]): 5 µM; effect on total O-GlcNAcylation in cell cultures (SH-SY5Y cells): neither 11 nor 13 had a noticeable effect |
| TAT-VTPVC(S-propyl-UDP)TA S-linked UDP-peptide conjugate 13 | – | inhibition of hOGT activity in vitro, IC50 [3]: 5 µM |
| CC(=O)N[C@H]1[C@@H](OP(=O)(O)OP(=O)(O)OC[C@H]2O[C@@H](n3ccc(=O)[nH]c3=O)[C@H](O)[C@@H]2O)O[C@H](CO)[C@@H](O)[C@@H]1O [UDP-GlcNAc] | – | Kd (OGT): 16 µM |
| CC(=O)N[C@H](C(=O)N[C@H](C(=O)N1CCC[C@H]1C(=O)N[C@H](C(=O)N[C@@H](CSCCCOP(=O)(O)OP(=O)(O)OC[C@H]1O[C@@H](n2ccc(=O)[nH]c2=O)[C@H](O)[C@@H]1O)C(=O)N[C@@H](CCCNC(=N)N)C(=O)N[C@@H](C)C(N)=O)C(C)C)[C@@H](C)O)C(C)C [compound 32] (Ac-VTPVC(Propyl(3-UDP))RA-NH2) | – | Ki (hOGT [1]): 1.3 ± 0.5 µM |
| PVC(S‑propyl‑UDP)TATHSLSRLH [S-linked UDP-peptide conjugate 37, PVC(S-propyl-UDP)TATHSLSRLH] | 80 ± 46 | – |
| {Floc-Ahx}-VTPVC(S‑propyl‑UDP)TA [5(6)-fluorescein carboxamide (Floc) labeled S-linked UDP-peptide conjugate 17] | – | Kd [5]: 1.6 µM |
| PVFTC(S‑propyl‑UDP)RS [S-linked UDP-peptide conjugate 33, PVFTC(S-propyl-UDP)RS] | 12.5 ± 7 | – |
| KENSPAVTPVC(S‑propyl‑UDP)TA [S-linked UDP-peptide conjugate 38, KENSPAVTPVC(S-propyl-UDP)TA] | 1.8 ± 1.3 | – |
| SVPYC(S‑propyl‑UDP)SAQS [S-linked UDP-peptide conjugate 35, SVPYC(S-propyl-UDP)SAQS] | 15 ± 2.3 | – |
| VTPVC(S‑propyl‑UDP)TATH [S-linked UDP-peptide conjugate 34, VTPVC(S-propyl-UDP)TATH] | 12.7 ± 2.3 | – |
| VPTVC(S‑propyl‑UDP)TA [S-linked UDP-peptide conjugate 29, VPTVC(S-propyl-UDP)TA] | 12.8 ± 4.5 | – |
| PVFTC(S‑propyl‑UDP)RSAA [S-linked UDP-peptide conjugate 36, PVFTC(S-propyl-UDP)RSAA] | 56 ± 32 | – |
| SVPYC(S‑propyl‑UDP)SA [S-linked UDP-peptide conjugate 30, SVPYC(S-propyl-UDP)SA] | 2.3 ± 1.6 | – |
| VTPVC(S‑propyl‑UDP)TA [S-linked UDP-peptide conjugate 6, VTPVC(S-propyl-UDP)TA] | 1.3 ± 0.8 | inhibition of hOGT activity, fluorometric OGT activity assay, IC50 [6]: 2 µM |
| VTPVS(O‑propyl‑UDP)TA [O-linked UDP-peptide conjugate 1, VTPVS(O-propyl-UDP)TA] | – | Ki [7]: 7 ± 2 µM |
| VTPVC(S‑propyl‑UDP)SA [S-linked UDP-peptide conjugate 31, VTPVC(S-propyl-UDP)SA] | 1.2 ± 1.3 | – |
